# Laboratory results from patent US20050032689A1, “Methods for treatment or diagnosis of disease or disorders associated with an APB domain” (New York University, priority 1994, published 2005).
# Entries after “also recorded” stand apart in the source; their conditions may differ.
# B1: Shc 1-209: Shc amino terminus, first 209 amino acids of murine p52Shc, generated as a GST fusion protein (protein, UniProt P98083 1-209, looked up, fragment)
# chain: MDLLPPKPKYNPLRNESLSSLEEGASGSTPPEELPSPSASSLGPILPPLPGDDSPTTLCSFFPRMSNLKLANPAGGRLGPKGEPGKAAEDGEGSAGAALRDSGLLPLLQDMNKLSGGGGRRTRVEGGQLGGEEWTRHGSFVNKPTRGWLHPNDKVMGPGVSYLVRYMGCVEVLQSMRALDFNTRTQVTREAISLVCEAVPGAKGATRRR
# modifications: GST fusion
# notes: Shc amino terminus, first 209 amino acids of murine p52Shc, generated as a GST fusion protein
# What was measured:
# [1] = molecular target: T1, TrkA (Rattus norvegicus, UniProt P35739); experiment: Binding of GST fusion proteins to TrkA from nerve growth factor stimulated PC12 cell lysates; conditions: 10 μg GST fusion protein, PC12 lysates stimulated with nerve growth factor
# T1 construct: lysates from 2×10^7 PC12 cells stimulated with 50 ng/ml nerve growth factor; endogenous in cells; host or cells: PC12
# T1 sequence (P35739 33-799): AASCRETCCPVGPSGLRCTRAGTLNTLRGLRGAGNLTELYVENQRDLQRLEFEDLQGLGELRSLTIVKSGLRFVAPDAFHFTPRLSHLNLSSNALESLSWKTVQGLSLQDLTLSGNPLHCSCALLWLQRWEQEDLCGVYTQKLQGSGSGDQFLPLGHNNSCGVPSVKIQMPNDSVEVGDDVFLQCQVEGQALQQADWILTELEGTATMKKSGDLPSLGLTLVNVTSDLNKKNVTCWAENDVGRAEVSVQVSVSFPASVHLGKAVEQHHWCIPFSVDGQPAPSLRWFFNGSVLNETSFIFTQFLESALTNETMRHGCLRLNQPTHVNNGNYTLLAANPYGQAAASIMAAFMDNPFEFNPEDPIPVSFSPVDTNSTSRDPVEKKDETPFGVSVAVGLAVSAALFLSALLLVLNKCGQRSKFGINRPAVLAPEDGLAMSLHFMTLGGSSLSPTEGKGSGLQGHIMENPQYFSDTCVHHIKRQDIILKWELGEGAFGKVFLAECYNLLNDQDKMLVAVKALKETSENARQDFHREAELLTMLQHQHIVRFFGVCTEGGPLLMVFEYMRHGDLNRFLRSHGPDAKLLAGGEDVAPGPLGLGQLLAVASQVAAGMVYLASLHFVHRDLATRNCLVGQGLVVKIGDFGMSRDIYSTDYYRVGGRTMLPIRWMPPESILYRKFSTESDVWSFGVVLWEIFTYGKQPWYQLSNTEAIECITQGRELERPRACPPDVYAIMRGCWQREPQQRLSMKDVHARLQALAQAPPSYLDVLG
# Method: (§1) FIGS. 4A, 4B, 4C and 4D. Binding of Shc fragments to growth factor receptors. A, schematic diagram illustrating the Shc fragments used in binding studies. Full length murine p52^shc is indicated in (i) while (ii)-(vi) were generated as GST fusion proteins for use in receptor binding studies. B, association of various GST fusion proteins with activated EGF receptor (EGFR). Binding was performed as in FIG. 2A with the exception that all lysates were stimulated with EGF. All studies used 3 μg of fusion proteins except for the Shc SH2 where 10 μg was used. Immunoblotting was performed with anti-phosphotyrosine. C, binding of Shc fusion proteins to NIH 3T3 cells expressing a HER1/2 chimera. This chimera consists of the EGF receptor extracellular binding domain and the intracellular region of HER2/neu. After stimulation of these cells with EGF (200 ng/ml) lysates were prepared and binding as well as blotting studies were performed as in B using anti-phosphotyrosine antibody. D, binding of Shc 1-209 to TrkA. Beads containing 10 μg of GST fusion proteins Shc 1-209, phospholipase C-γ (PLC-γ) SH2 (contains both N and C SH2 domains), or GST alone were added to lysates from 2×10^7 PC12 cells stimulated with 50 ng/ml nerve growth factor (lanes 1, 2, and 4). […] Protein concentration was determined by SDS-PAGE (polyacrylamide gel electrophoresis) using bovine serum albumin as a standard. […]
# [2] = system: HER2/neu (HER1/2 chimera); experiment: Binding of GST-Shc fusion proteins to HER1/2 chimera from NIH 3T3 lysates, anti-phosphotyrosine blot; conditions: EGF-stimulated NIH 3T3 lysates
# Method: as §1, with “4). The binding of the same amount of lysate to 2 μg of anti-TrkA antibody is shown as a positive control and to indicate the position of TrkA on the blot (lane 3). Otherwise, the binding and blotting were performed as in B using anti-phosphotyrosine antibody.” for “4).”
molecule,measurement,setting,value
B1,binding to TrkA,[1],bound to HER2/neu and TrkA; also recorded: bind in a similar fashion to that seen with the SH2 domain of phospholipase C-λ
same,binding to HER2/neu,[2],bound to HER2/neu
